According to publication PMC4262734:

Target: HA-Cdk2 (UniProt P24941)
Test: co-IP; HeLa cells co-overexpressing wild-type or mutant Flag-p27Xic1 with HA-Cdk2; binding quantified against wild type (mean ± SEM)

Substance	reduction of binding against wild-type p27Xic1 [%]	increase of binding against wild-type p27Xic1 [%]
Flag-p27Xic1 T68E (natural protein)	50	
Flag-p27Xic1 T68A (natural protein)		140
